We go through twelve molecules from patent US20190241654A1 (published 2019).

Several values for one entry are separate records, joined by “and”; a condition that tells them apart may be missing. Equal entries are not always repeated.

Test [1] concerns the target T1, CD47 on CCRF-CEM cells (human, UniProt Q08722 19-323). Put plainly: cell-based or functional assay.
Test [2] addresses T1, CD47 on CCRF-CEM cells. Kind of test: flow cytometry on antibody-opsonized CCRF-CEM cells, anti-human Alexa 647 secondary, median fluorescence, sigmoidal fit. On the procedure: (§1) Phagocytosis was assayed by serum starving the macrophages in incomplete AIM V media for two hours. During this incubation period, target cells (CCRF-CEM) from two donors (donor 1 and donor 2) were labeled with CSFE (Invitrogen, #C34554) at […] for 15 minutes at room temperature. Cells were rinsed twice with PBS (Hyclone, #SH30028.02) and resuspended at 8×10⁵/mL in AIM V media. Antibody dilutions were prepared at 0.01 ug/ml to 10 ug/ml in half log dilutions and then incubated with the target cell line for 10 minutes at room temperature (a small portion is retained for flow cytometric analysis/cell binding), after which 100 μL of target cell/antibody suspension was added to the macrophage plates. Samples were treated in triplicate and with appropriate isotype controls.
(§2) Samples were incubated for 30 minutes at room temperature, rinsed 2× and then resuspended in FACS buffer and analyzed on the Attune. The EC50 values refer to the concentration that gives half the maximum binding measured as median fluorescent intensity, and was determined by non-linear fit of a sigmoidal dose response within the GraphPad Prism software.
In general terms: Flow cytometry measures light scatter and fluorescence of single cells or particles in a stream.

In test [3] the target is T1, CD47 on CCRF-CEM cells. Put plainly: flow cytometry on antibody-opsonized CCRF-CEM cells, anti-human Alexa 647 secondary, median fluorescence, sigmoidal fit; Donor 1. As for the experimental part: as §1, §2
Test [4] addresses T1, CD47 on CCRF-CEM cells. Put plainly: flow cytometry on antibody-opsonized CCRF-CEM cells, anti-human Alexa 647 secondary, median fluorescence, sigmoidal fit; Donor 2. As for the experimental part:
as §1, §2

T1 sequence (Q08722 19-323): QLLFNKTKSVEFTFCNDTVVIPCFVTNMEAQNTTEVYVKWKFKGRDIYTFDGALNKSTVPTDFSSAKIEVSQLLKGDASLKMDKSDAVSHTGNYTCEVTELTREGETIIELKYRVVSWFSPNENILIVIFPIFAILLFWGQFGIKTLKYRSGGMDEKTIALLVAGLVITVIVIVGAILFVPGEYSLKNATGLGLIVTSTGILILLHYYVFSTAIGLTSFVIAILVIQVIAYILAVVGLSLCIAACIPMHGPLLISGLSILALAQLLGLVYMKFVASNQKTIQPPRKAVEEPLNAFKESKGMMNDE

B1: Ab1119/Ab480 (LC Ab1119, HC Ab480) anti-CD47 antibody (antibody, V domains shown)
VH: QMQLVQSGAEVKKPGSSVKVSCKASGFNIKDYYLHWVRQAPGKGLEWMGWIDPDQGDTEYAQKFQGRVTITRDRSTSTAYMELRSLRAEDTAVYYCNAAYGSSSYPMDYWGQGTLVTVSS
VL: NIQMTQSPSSLSASVGDRVTITCRASQDIHRYLSWFQQKPGKVPKHLIYRANRLVSGVPSRFSGSGSGTEFTLTISSLQPEDFATYYCLQYDEFPYTFGGGTKVEIK
notes: Variant of AbParental
Broadly, the EC50 is the midpoint of the concentration-response curve. Consider B1, for which the “Phagocytosis EC50 (ug/mL), Donor 1” value with CD47 on CCRF-CEM cells [1] was 0.44 µg/mL and 0.19 µg/mL. The “Phagocytosis EC50 (ug/mL), Donor 2” value with CD47 on CCRF-CEM cells [1] is 0.71 µg/mL and 0.24 µg/mL. Moreover, the 50% effective concentration (EC50) in the test with CD47 on CCRF-CEM cells [2] stood at 0.012 µg/mL; with CD47 on CCRF-CEM cells [3], 0.04 µg/mL; with CD47 on CCRF-CEM cells [4], 0.07 µg/mL.

B2: AbParental, parental anti-CD47 antibody (antibody, human IgG4 S228P, kappa, V domains shown)
VH: QMQLVQSGAEVKKTGSSVKVSCKASGFNIKDYYLHWVRQAPGQALEWMGWIDPDQGDTEYAQKFQDRVTITRDRSMSTAYMELSSLRSEDTAMYYCNAAYGSSSYPMDYWGQGTTVTVSS
VL: NIQMTQSPSAMSASVGDRVTITCKASQDIHRYLSWFQQKPGKVPKHLIYRANRLVSGVPSRFSGSGSGTEFTLTISSLQPEDFATYYCLQYDEFPYTFGGGTKVEIKR
notes: Parental anti-CD47 antibody, described in WO 2013/119714 A1; also called Parental LC-HC; parental antibody
Take B2: in the test with CD47 on CCRF-CEM cells [1], the “Phagocytosis EC50 (ug/mL), Donor 1” value was found to be 0.38 µg/mL and the “Phagocytosis EC50 (ug/mL), Donor 2” value is 0.13 µg/mL. Besides, it took 0.014 µg/mL to reach a half-maximal effect with CD47 on CCRF-CEM cells [2] (EC50).

B3: Ab495/Ab480 (LC Ab495, HC Ab480) anti-CD47 antibody (antibody, V domains shown)
VH: QMQLVQSGAEVKKPGSSVKVSCKASGFNIKDYYLHWVRQAPGKGLEWMGWIDPDQGDTEYAQKFQGRVTITRDRSTSTAYMELRSLRAEDTAVYYCNAAYGSSSYPMDYWGQGTLVTVSS
VL: NIQMTQSPSSLSASVGDRVTITCKASQDIHRYLSWYQQKPGKAPKHLIYRANRLVSGVPSRFSGSGSGTEFTLTISSLQPEDFATYYCLQYDEFPYTFGGGTKVEIK
notes: Framework variant of AbParental
Take B3: in the test with CD47 on CCRF-CEM cells [1], the “Phagocytosis EC50 (ug/mL), Donor 1” value is 0.59 µg/mL and the “Phagocytosis EC50 (ug/mL), Donor 2” value was found to be 0.94 µg/mL. The molecule also displayed an EC50 with CD47 on CCRF-CEM cells [2] of 0.066 µg/mL.

B4: Ab480/Ab1121 (HC Ab480, LC Ab1121) anti-CD47 antibody (antibody, V domains shown)
VH: QMQLVQSGAEVKKPGSSVKVSCKASGFNIKDYYLHWVRQAPGKGLEWMGWIDPDQGDTEYAQKFQGRVTITRDRSTSTAYMELRSLRAEDTAVYYCNAAYGSSSYPMDYWGQGTLVTVSS
VL: NIQMTQSPSSLSASVGDRVTITCRASQDIHRYLSWFQQKPGKVPKHLIYRYIRFVDGVPSRFSGSGSGTEFTLTISSLQPEDFATYYCLQYDEFPYTFGGGTKVEIK
notes: FR and CDR L2 variant of AbParental; The label order is HC/LC although the head says 'LC/HC'; r442 is used
Regarding B4, in the test with CD47 on CCRF-CEM cells [1], the “Phagocytosis EC50 (ug/mL), Donor 1” value was determined as 0.43 µg/mL and the “Phagocytosis EC50 (ug/mL), Donor 2” value stood at 1.42 µg/mL. This molecule also had an EC50 in the test with CD47 on CCRF-CEM cells [3] of 0.17 µg/mL. The same molecule returned an EC50 with CD47 on CCRF-CEM cells [4] of 0.17 µg/mL.

B5: Ab480/Ab1122 (HC Ab480, LC Ab1122) anti-CD47 antibody (antibody, V domains shown)
VH: QMQLVQSGAEVKKPGSSVKVSCKASGFNIKDYYLHWVRQAPGKGLEWMGWIDPDQGDTEYAQKFQGRVTITRDRSTSTAYMELRSLRAEDTAVYYCNAAYGSSSYPMDYWGQGTLVTVSS
VL: NIQMTQSPSSLSASVGDRVTITCRASQDIHRYLSWFQQKPGKVPKHLIYRYERFVDGVPSRFSGSGSGTEFTLTISSLQPEDFATYYCLQYDEFPYTFGGGTKVEIK
notes: FR and CDR L2 variant of AbParental; The label order is HC/LC although the head says 'LC/HC'; r445 is used
With B5, the “Phagocytosis EC50 (ug/mL), Donor 1” value with CD47 on CCRF-CEM cells [1] was 1.1 µg/mL. Further, the “Phagocytosis EC50 (ug/mL), Donor 2” value with CD47 on CCRF-CEM cells [1] is 1.84 µg/mL. Besides, the EC50 was 0.16 µg/mL in the test with CD47 on CCRF-CEM cells [3] and 0.17 µg/mL in the test with CD47 on CCRF-CEM cells [4].

B6: Ab480/Ab1127 (HC Ab480, LC Ab1127) anti-CD47 antibody (antibody, V domains shown)
VH: QMQLVQSGAEVKKPGSSVKVSCKASGFNIKDYYLHWVRQAPGKGLEWMGWIDPDQGDTEYAQKFQGRVTITRDRSTSTAYMELRSLRAEDTAVYYCNAAYGSSSYPMDYWGQGTLVTVSS
VL: NIQMTQSPSSLSASVGDRVTITCRASQDIHRYLSWFQQKPGKVPKHLIYRESRFVDGVPSRFSGSGSGTEFTLTISSLQPEDFATYYCLQYDEFPYTFGGGTKVEIK
notes: FR and CDR L2 variant of AbParental; The label order is HC/LC although the head says 'LC/HC'; r460 is used
With B6, in the test with CD47 on CCRF-CEM cells [1], the “Phagocytosis EC50 (ug/mL), Donor 1” value is 1.88 µg/mL and the “Phagocytosis EC50 (ug/mL), Donor 2” value was 1.95 µg/mL. Also, in the test with CD47 on CCRF-CEM cells [3], the EC50 worked out at 0.08 µg/mL. In the test with CD47 on CCRF-CEM cells [4], this molecule registered an EC50 of 0.2 µg/mL.

B7: Ab356/Ab1127 (HC Ab356, LC Ab1127) anti-CD47 antibody (antibody, V domains shown)
VH: QMQLVQSGAEVKKPGSSVKVSCKASGFNIKDYYLHWVRQAPGKGLEWMGWIDPDQGDTEYAQKFQGRVTITRDRSTSTAYMELRSLRAEDTAVYYCNAAYGSSSYPMDYWGQGTTVTVSS
VL: NIQMTQSPSSLSASVGDRVTITCRASQDIHRYLSWFQQKPGKVPKHLIYRESRFVDGVPSRFSGSGSGTEFTLTISSLQPEDFATYYCLQYDEFPYTFGGGTKVEIK
notes: as for B6
On to B7, for which, in the test with CD47 on CCRF-CEM cells [1], the “Phagocytosis EC50 (ug/mL), Donor 1” value amounted to 0.66 µg/mL and the “Phagocytosis EC50 (ug/mL), Donor 2” value worked out at 0.96 µg/mL. The same molecule registered an EC50 with CD47 on CCRF-CEM cells [3] of 0.11 µg/mL. The half-maximal effective concentration (EC50) with CD47 on CCRF-CEM cells [4] is 0.15 µg/mL.

B8: Ab495/Ab356 (LC Ab495, HC Ab356) anti-CD47 antibody (antibody, V domains shown)
VH: QMQLVQSGAEVKKPGSSVKVSCKASGFNIKDYYLHWVRQAPGKGLEWMGWIDPDQGDTEYAQKFQGRVTITRDRSTSTAYMELRSLRAEDTAVYYCNAAYGSSSYPMDYWGQGTTVTVSS
VL: NIQMTQSPSSLSASVGDRVTITCKASQDIHRYLSWYQQKPGKAPKHLIYRANRLVSGVPSRFSGSGSGTEFTLTISSLQPEDFATYYCLQYDEFPYTFGGGTKVEIK
notes: as for B3
For the molecule B8, in the test with CD47 on CCRF-CEM cells [1], the “Phagocytosis EC50 (ug/mL), Donor 1” value stood at 0.68 µg/mL and the “Phagocytosis EC50 (ug/mL), Donor 2” value came out at 0.92 µg/mL. In the test with CD47 on CCRF-CEM cells [2], the EC50 worked out at 0.035 µg/mL.

B9: Ab482/Ab387 (LC Ab482, HC Ab387) anti-CD47 antibody (antibody, V domains shown)
VH: QMQLVQSGAEVKKPGSSVKVSCKASGFNIKDYYLHWVRQAPGKGLEWMGWIDPDQGDTEYAQKFQGRVTITRDRSTSTAYMELRSLRSEDTAVYYCNAAYGSSSYPMDYWGQGTLVTVSS
VL: NIQMTQSPSSMSASVGDRVTITCKASQDIHRYLSWFQQKPGKVPKHLIYRANRLVSGVPSRFSGSGSGTEFTLTISSLQPEDFATYYCLQYDEFPYTFGGGTKVEIK
notes: as for B3
Take B9: in the test with CD47 on CCRF-CEM cells [1], the “Phagocytosis EC50 (ug/mL), Donor 1” value is 0.15 µg/mL and the “Phagocytosis EC50 (ug/mL), Donor 2” value amounted to 0.17 µg/mL. This molecule came in with an EC50 with CD47 on CCRF-CEM cells [2] of 0.014 µg/mL.

B10: Ab480/Ab1120 (HC Ab480, LC Ab1120) anti-CD47 antibody (antibody, V domains shown)
VH: QMQLVQSGAEVKKPGSSVKVSCKASGFNIKDYYLHWVRQAPGKGLEWMGWIDPDQGDTEYAQKFQGRVTITRDRSTSTAYMELRSLRAEDTAVYYCNAAYGSSSYPMDYWGQGTLVTVSS
VL: NIQMTQSPSSLSASVGDRVTITCRASQDIHRYLSWFQQKPGKVPKHLIYRYVRFVDGVPSRFSGSGSGTEFTLTISSLQPEDFATYYCLQYDEFPYTFGGGTKVEIK
notes: FR and CDR L2 variant of AbParental
Consider B10, for which, in the test with CD47 on CCRF-CEM cells [1], the “Phagocytosis EC50 (ug/mL), Donor 1” value turned out to be 0.73 µg/mL and the “Phagocytosis EC50 (ug/mL), Donor 2” value worked out at 2.01 µg/mL. In the test with CD47 on CCRF-CEM cells [3], this molecule displayed an EC50 of 0.33 µg/mL. The molecule further yielded an EC50 with CD47 on CCRF-CEM cells [4] of 0.17 µg/mL.

B11: Ab1119/Ab170 (LC Ab1119, HC Ab170) anti-CD47 antibody (antibody, V domains shown)
VH: QMQLVQSGAEVKKPGSSVKVSCKASGFNIKDYYLHWVRQAPGKGLEWMGWIDPDQGDTEYAQKFQGRVTITRDRSTSTAYMELRSLRSEDTAVYYCNAAYGSSSYPMDYWGQGTTVTVSS
VL: NIQMTQSPSSLSASVGDRVTITCRASQDIHRYLSWFQQKPGKVPKHLIYRANRLVSGVPSRFSGSGSGTEFTLTISSLQPEDFATYYCLQYDEFPYTFGGGTKVEIK
notes: Variant of AbParental
In the case of B11, in the test with CD47 on CCRF-CEM cells [1], the “Phagocytosis EC50 (ug/mL), Donor 1” value turned out to be 0.15 µg/mL and the “Phagocytosis EC50 (ug/mL), Donor 2” value came out at 0.62 µg/mL. Moreover, in the test with CD47 on CCRF-CEM cells [2], the midpoint of the response, the EC50, lay at 0.015 µg/mL.

B12: Ab1119/Ab387 (LC Ab1119, HC Ab387) anti-CD47 antibody (antibody, V domains shown)
VH: QMQLVQSGAEVKKPGSSVKVSCKASGFNIKDYYLHWVRQAPGKGLEWMGWIDPDQGDTEYAQKFQGRVTITRDRSTSTAYMELRSLRSEDTAVYYCNAAYGSSSYPMDYWGQGTLVTVSS
VL: NIQMTQSPSSLSASVGDRVTITCRASQDIHRYLSWFQQKPGKVPKHLIYRANRLVSGVPSRFSGSGSGTEFTLTISSLQPEDFATYYCLQYDEFPYTFGGGTKVEIK
notes: Variant of AbParental
As for B12, the “Phagocytosis EC50 (ug/mL), Donor 2” value with CD47 on CCRF-CEM cells [1] was 0.52 µg/mL and 0.21 µg/mL. The EC50 with CD47 on CCRF-CEM cells [2] is 0.011 µg/mL and 0.014 µg/mL.
